From PMC7864056, “Functional and structural characterization of allosteric activation of phospholipase Cε by Rap1A” (The Journal of Biological Chemistry, 2020)

Experiments:
Assay in all cases: cell-based or functional assay
[1] = target: R. norvegicus PLCε PH-COOH variant (residues 837-2282) (R. norvegicus, UniProt Q99P84 837-2281)
[2] = target: R. norvegicus PLCε PH-COOH K2150A (R. norvegicus, UniProt Q99P84 837-2281, K2150A)
[3] = target: R. norvegicus PLCε PH-COOH K2152A (R. norvegicus, UniProt Q99P84 837-2281, K2152A)
Chain of R. norvegicus PLCε PH-COOH K2152A (Q99P84 837-2281 K2152A): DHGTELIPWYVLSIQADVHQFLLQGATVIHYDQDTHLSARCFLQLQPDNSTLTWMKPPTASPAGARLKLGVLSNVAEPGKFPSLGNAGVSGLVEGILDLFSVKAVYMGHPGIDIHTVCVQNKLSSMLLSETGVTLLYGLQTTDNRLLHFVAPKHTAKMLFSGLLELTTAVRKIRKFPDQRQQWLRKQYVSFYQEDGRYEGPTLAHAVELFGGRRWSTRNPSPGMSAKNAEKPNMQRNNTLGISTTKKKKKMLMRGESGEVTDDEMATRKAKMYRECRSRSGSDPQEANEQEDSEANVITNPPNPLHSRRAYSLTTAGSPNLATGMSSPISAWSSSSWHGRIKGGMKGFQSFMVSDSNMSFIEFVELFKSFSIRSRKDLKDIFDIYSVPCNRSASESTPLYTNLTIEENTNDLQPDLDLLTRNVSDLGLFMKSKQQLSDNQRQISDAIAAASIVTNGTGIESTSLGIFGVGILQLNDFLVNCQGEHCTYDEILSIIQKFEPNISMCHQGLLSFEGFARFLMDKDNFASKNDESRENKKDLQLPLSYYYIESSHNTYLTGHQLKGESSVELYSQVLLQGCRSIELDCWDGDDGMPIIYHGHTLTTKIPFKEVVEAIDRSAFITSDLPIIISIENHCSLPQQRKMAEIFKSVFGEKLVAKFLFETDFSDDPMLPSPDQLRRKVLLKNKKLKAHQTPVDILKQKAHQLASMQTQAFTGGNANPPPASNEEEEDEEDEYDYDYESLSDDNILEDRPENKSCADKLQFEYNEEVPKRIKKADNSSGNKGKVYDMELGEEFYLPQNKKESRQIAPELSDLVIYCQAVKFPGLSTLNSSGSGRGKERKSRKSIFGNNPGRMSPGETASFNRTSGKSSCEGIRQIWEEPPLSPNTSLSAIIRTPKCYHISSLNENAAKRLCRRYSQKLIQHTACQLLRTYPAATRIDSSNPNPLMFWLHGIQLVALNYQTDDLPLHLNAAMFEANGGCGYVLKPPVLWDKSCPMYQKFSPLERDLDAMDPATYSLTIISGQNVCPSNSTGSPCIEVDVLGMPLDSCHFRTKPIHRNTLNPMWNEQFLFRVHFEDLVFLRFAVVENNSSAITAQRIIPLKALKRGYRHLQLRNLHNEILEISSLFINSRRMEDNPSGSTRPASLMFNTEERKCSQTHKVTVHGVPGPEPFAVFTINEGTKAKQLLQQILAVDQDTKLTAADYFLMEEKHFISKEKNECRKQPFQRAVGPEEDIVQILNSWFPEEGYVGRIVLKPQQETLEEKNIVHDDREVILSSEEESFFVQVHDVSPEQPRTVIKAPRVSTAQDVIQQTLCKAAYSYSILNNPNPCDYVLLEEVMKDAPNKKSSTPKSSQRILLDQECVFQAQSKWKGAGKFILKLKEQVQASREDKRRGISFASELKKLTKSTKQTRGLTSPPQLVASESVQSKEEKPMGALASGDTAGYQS

Chain of R. norvegicus PLCε PH-COOH variant (residues 837-2282) (Q99P84 837-2281, stated change not applied): as the sequence (Q99P84 837-2281 K2152A) above, with A1316K counted along it
Chain of R. norvegicus PLCε PH-COOH K2150A (Q99P84 837-2281 K2150A): as the sequence (Q99P84 837-2281 K2152A) above, with K1314A, A1316K counted along it

B1: constitutively active and prenylated Homo sapiens Rap1A G12V, GTP-bound (natural protein, UniProt P62834 1-184, looked up)
chain: MREYKLVVLGSVGVGKSALTVQFVQGIFVEKYDPTIEDSYRKQVEVDCQQCMLEILDTAGTEQFTAMRDLYMKNGQGFALVYSITAQSTFNDLQDLREQILRVKDTEDVPMILVGNKCDLEDERVVGKEQGQNLARQWCNCAFLESSAKSKINVNEIFYDLVRQINRKTPVEKKKPKKKSCLLL
modifications: prenylated
Fold activation by Rap1A^G12V of lipase activity, liposome-based [3H]PIP2 hydrolysis assay, increasing concentrations of Rap1A^G12V·GTP [1]: 3 fold
Fold activation by Rap1A^G12V of lipase activity, liposome-based [3H]PIP2 hydrolysis assay [2]: 1.8 fold
Fold activation by Rap1A^G12V of lipase activity, liposome-based [3H]PIP2 hydrolysis assay [3]: 0.9 fold
